Measured values as given in the RNAGym collection of RNA variant scans (doi:10.7554/elife.90254).

B1: OR4K15 (parent)
chain: GUUAACGGUCAUAGGCCAUGGAAACUAGGAGCACCAUUUCGCUGCCAGUGAAGAAAUGAACAAAGAAAAUCUGGGCCAGGCAGGCAUCAAAAGAAAUAGUCUUGCGCUCAACCAGAAAGUCUGUAAUCAUUUUAAGGGUA

Variants of: B1
Test: self-cleavage, relative activity (ratio to wild type); higher = more cleavage; in vitro, sequencing; the parent is a self-cleaving ribozyme

Variant | self-cleavage
A60G A126G | 0.27
A60U A118U | 0.99
A59G C112G | 0.03
A59U U130C | 1.05
A59U A67G | 1.25
A59U A63G | 1.22
A59G C101U | 0.26
A59C U124A | 0.73
A59U U132A | 1.61
A60G A116U | 0.31
A60G A116G | 0.5
A59U A91G | 0.79
A60U A89G | 1.73
A60U A89U | 1.68
A60G C101A | 0.23
A59G A86C | 0.64
A59G A86G | 0.5
A59G A86U | 1.71
A59G U122A | 1.38
A60G A114U | 0.06
A62C G83A | 2.18
A62G A95G | 2.2
C61U U72A | 0.19
A59G A116G | 0.77

Variant | self-cleavage
A59G A116U | 0.32
A62U A89U | 1.93
A62U A89G | 1.95
A60G U100C | 1.35
A62C A86G | 1.15
G58A A126G | 0.63
A59G A98G | 0.67
A60G A66G | 1.15
A60G A94U | 2.32
A62G A78G | 0.27
A59G A129C | 0.55
A59G A129U | 0.86
A62G U122A | 1.07
A60C A117U | 0.56
A59G A135G | 0.84
A59G A110C | 0.44
A59G A110U | 0.97
A59G A110G | 0.17
A59G U100C | 2.06
A59G U100A | 0.63
A59C | 1.66
A59U | 1.14
A59G | 1.06
G58U U127C | 1.33

Variant | self-cleavage
G58U U100C | 2.08
A59G A78U | 0.28
A62C A96G | 2.59
A60G A63G | 1.35
A60G A63C | 1.48
A59U A114C | 0.03
A60U U130C | 1.22
A59G A68U | 1.91
A62U A95G | 2.47
A62U A78U | 0.33
A62U A78G | 0.28
A59G C113U | 0.03
A62C U87C | 1.51
A59G A62C | 0.43
A60U U70C | 1.72
A62G A135G | 2.19
A60G U97C | 1.05
A60G A64U | 1.46
C61U G106U | 0.04
A60C A66G | 0.72
G58U U87C | 0.38
A59U A117C | 0.63
A60U G104A | 0.03
A60G A90C | 0.79

Variant | self-cleavage
A60U A134G | 1.84
A62G A118U | 0.73
A62G A118G | 1.01
A59U A68C | 1.35
A59U A68G | 1.43
A60U U108C | 0.01
A62G A110U | 2.32
A62G A110G | 0.16
A62G A66U | 1.78
A62G A66G | 1.48
C61U A63G | 2.17
A59G U132C | 0.46
A59G U132G | 1.41
A60U A86G | 0.74
A60G U132A | 1.17
C61U C101U | 0.54
C61G A110G | 0.41
C61U G136A | 2.1
A62G G136U | 1.1
A62G G136A | 2.2
A62G A94G | 1.52
A59U A110G | 0.08
C61U A64G | 1.63
A62G G115U | 0.07

Variant | self-cleavage
A59G C109G | 0.03
A62G A92U | 1.01
A60G G104A | 0.02
A62G C112G | 0
A59U A116U | 0.2
A60G U124C | 0.63
A59U A95G | 1.85
A59G U120C | 0.97
A59G U102A | 0.81
A59G U102C | 1.5
A60G G84U | 0.43
A59U G79A | 0.14
A59G G115U | 0.13
A60G G123A | 1.05
A59C C113A | 0.02
A60C U120C | 0.98
A59G A90G | 0.78
A62G A114G | 0.44
A60G U87C | 0.93
A59G U103C | 0.67
A59G G106A | 0.02
A60G C112U | 0.02
A60G C128G | 0.87
A59U A86G | 0.7

Variant | self-cleavage
A59U A86U | 1.92
A62C A92G | 1.58
A59G A69C | 0.6
A59G A69U | 1.7
A62C A134G | 1.15
A62C A140U | 1.7
G58U U108C | 0.02
C61U A117G | 1.54
A60G U139C | 0.47
A60G U139A | 1.12
A59G A92U | 1.08
A60G A125G | 0.69
A60U A91G | 1.34
A60U G136A | 1.51
A59U A89U | 2.6
A60C U108A | 0.04
A60G U103C | 0.78
A60G U103G | 0.05
A62G U108C | 0.02
A62G A129G | 1.09
A62G A129U | 0.89
A59U U131C | 1.25
A60C G65A | 0.54
A62C U130C | 0.71

Variant | self-cleavage
A59G G79A | 0.28
A60U A98G | 0.39
A60G C105U | 0.28
A62U G73U | 0.17
A60C A82G | 0.28
A60U A94U | 1.82
A62G U139C | 1.62
A62G U139A | 1.84
A62G A134G | 1.72
G58A U133C | 1.94
C61U C85U | 0.95
A59G A118C | 0.9
G58A G106A | 0.01
A60G G79C | 0.07
A62G U87C | 0.88
A62G U87A | 1.71
A59G A117G | 1.71
A62C A116U | 0.63
A62C A116G | 0.78
A60U A96G | 1.78
A62G G106A | 0.01
A60G A129G | 0.49
A62G A140G | 1.36
